Assay [1] has as its target T1, SARS-CoV-2 spike S2 peptide 1149-1167 (C-terminal end of the stem helix), biotinylated (SARS-CoV-2). In words: SPR, Fab over captured biotin-peptide, 25 C.
For assay [2], the target named is T2, SARS-CoV-2 spike S2 peptide 1149-1163, biotinylated (SARS-CoV-2). In words: SPR, Fab over captured biotin-peptide, 25 C. For orientation: SPR reads the build-up and loss of mass on a sensor chip optically.
Assay [3] deals with SARS-CoV-2 spike S2 peptide 1143-1162 (stem helix region), biotinylated (SARS-CoV-2). In words: SPR, Fab over captured biotin-peptide, 25 C.
Assay [4] has as its target T3, SARS-CoV-2 spike S2 peptide 1153-1167, biotinylated (SARS-CoV-2). In words: SPR, Fab over captured biotin-peptide, 25 C.
Assay [5] concerns the target T1, SARS-CoV-2 spike S2 peptide 1149-1167 …. In words: SPR, Fab over captured biotin-peptide, 25 C. This is another data set of the same source.
Assay [6] addresses SARS-CoV-2 spike S2 peptide 1157-1171, biotinylated (SARS-CoV-2). In words: DELFIA, IgG titrated on captured biotin-peptide. Details: unit not given beside the values.
Assay [7] addresses T1, SARS-CoV-2 spike S2 peptide 1149-1167 …. In words: DELFIA, IgG titrated on captured biotin-peptide. Details: unit not given beside the values.
Assay [8] addresses T2, SARS-CoV-2 spike S2 peptide 1149-1163, …. In words: DELFIA, IgG titrated on captured biotin-peptide. Details: unit not given beside the values.
In assay [9] the target is SARS-CoV-2 spike S2 peptide 1137-1151, biotinylated (SARS-CoV-2). In words: DELFIA, IgG titrated on captured biotin-peptide. Details: unit not given beside the values.
In assay [10] the target is SARS-CoV-2 spike S2 peptide 1133-1147, biotinylated (SARS-CoV-2). In words: DELFIA, IgG titrated on captured biotin-peptide. Details: unit not given beside the values.
Assay [11] deals with HIV-1 Env peptide (negative control 15-mer), biotinylated (HIV-1). In words: DELFIA, IgG titrated on captured biotin-peptide. Details: unit not given beside the values.
Assay [12] has as its target T3, SARS-CoV-2 spike S2 peptide 1153-1167, …. In words: DELFIA, IgG titrated on captured biotin-peptide. Details: unit not given beside the values.

Where a chain is given by its changes, count along the chain named. Like-named read-outs stand apart in the source and are kept apart here.

This is an account of results in patent US20230357367A1.

Usually Kd stands for a measure of binding affinity in units of concentration. As a reminder, the koff is the first-order rate constant of dissociation. A word on the kon: it is a measure of how fast the partners come together.

B1: AB-1 Fab (Fab, V domains shown)
VH: EVQLVESGAEVKKPGESLKISCKGSGYTFTRYWIGWVRQMPGKGLEWMGIIYPGDSDVRYSPSFQGHVTISADKSISTAYLQWNSLKASDTAMYYCARLPQYCSKGVCYRWFDPWGQGTLVTVSS
VL: EIVLTQSPSSVSASVGDRVTITCRASQGISSWLAWYQQKPGKAPKLLIYAASSLQSGVPSRFSGSGSGTDFTLTISSLQPEDFATYYCQQGHSFPYTFGQGTNLEIK
As for B1, the Kd was 0.9 nM in assay [1]; 83.1 nM in assay [2]; 12.3 nM in assay [3]; 111 nM in assay [4]; 0.925 nM in [5]. The koff in [1] was 0.00241 s⁻¹; in assay [2], 0.146 s⁻¹; in [3], 0.037 s⁻¹; in assay [4] it was 0.0774 s⁻¹. Further, the kon amounted to 2.61e+06 M⁻¹ s⁻¹ in assay [1], 1.76e+06 M⁻¹ s⁻¹ in assay [2], 3e+06 M⁻¹ s⁻¹ in assay [3] and 697000 M⁻¹ s⁻¹ in assay [4].

B2: Reference Antibody (antibody, V domains shown)
VH: B1 VH with V58T, K105N, Y109Q
VL: B1 VL with H92N
With B2, the AUC was determined as 6010 in assay [6]; 3.05e+06 in assay [7]; 3.26e+06 in assay [8]; 5050 in [9]; 3260 in [10]; 16100 in [11]. In [12], the AUC was found to be 3.12e+06.

B3: AB-1 (antibody, V domains shown)
VH: B1 VH
VL: B1 VL
As to B3, in assay [11], the AUC came out at 9860.

B4: Reference Antibody Fab (Fab, V domains shown)
VH: B1 VH with V58T, K105N, Y109Q
VL: B1 VL with H92N
Regarding B4, the Kd came out at 5.4 nM in [1], 244 nM in assay [2], 311 nM in [4] and 5.36 nM in assay [5]. The koff came out at 0.00498 s⁻¹ in assay [1], 0.0663 s⁻¹ in assay [2] and 0.0535 s⁻¹ in assay [4]. Also, the kon in assay [1] is 929000 M⁻¹ s⁻¹; in [2], 272000 M⁻¹ s⁻¹; in [4] it was 172000 M⁻¹ s⁻¹.
